# Data reported in the supplement of paper PMC7877785.
# ± gives the uncertainty stated by the source.
# Experiment: self-splicing fitness, log relative to wild type (ln ratio); higher = more splicing; Tetrahymena group I intron in knt gene, E. coli kanamycin selection, DiMSum; sequences stand for … in CUCUCU…GGAGGGAAAAGUUAUCAGGCAUGCACCUGGUAGCUAGUCUUUAAACCAAUAGAUUGCAUCGGUUUAAAAGGCAAGACCGUCAAAUUGCGGGAAAGGGGUCAACAGCCGUUCAGUACCAAGUCUCAGGGGAAACUUUGAGAUGGCCUUGCAAAGGGUAUGGUAAUAAGCUGACGGACAUGGUCCUAACCACGCAGCCAAGUCCUAAGUCAACAGAUCUUCUGUUGAUAUGGAUGCAGUUCACAGACUAAAUGUCGGUCGGGGAAGAUGUAUUCUUCUCAUAAGAUAUAGUCGGACCUCUCCUUAAUGGGAGCUAGCGGAUGAAGUGAUGCAACACUGGAGCCGCUGGGAACUAAUUUGUAUGCGAAAGUAUAUUGAUUAGUUUUGGAGUACUCGUGGUCG
# Summary of the method: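 DiMSum derived fitness as the error-weighted combination of fold changes across replicates, kanamycin versus no kanamycin, normalised to wild type. E. coli BL21(DE3) held the library, which randomised all eight P1ex-region intron nucleotides within the knt kanamycin-resistance gene on pET-22b(+). Six replicate transformations grew overnight at 37°C or 30°C on LB agar with or without 25 μg/mL kanamycin, also containing 100 μg/mL carbenicillin, 50 μM IPTG and 0.2% rhamnose, and pooled colonies were amplicon-sequenced on an Illumina HiSeq 2500.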
Sequence,self-splicing fitness (ln) (30 °C),self-splicing fitness (ln) (37 °C)
ACCUAGCAAUAUUACGGUGU,-2.97 ± 0.1,-1.93 ± 0.12
ACUCAGCAAUAUUACGUACA,-1.74 ± 0.1,-0.876 ± 0.1
GAAAAGCAAUAUUACGAGUA,-3.92 ± 0.42,-2.44 ± 0.2
AAAUAGCAAUAUUACGCACU,0.478 ± 0.12,-0.381 ± 0.13
GAGUAGCAAUAUUACGUGCG,-2.61 ± 0.17,0.0549 ± 0.13
GGCUAGCAAUAUUACGUUCU,-0.249 ± 0.082,-0.358 ± 0.1
GACGAGCAAUAUUACGUAGG,-3.47 ± 0.25,-2.12 ± 0.22
CGGUAGCAAUAUUACGGGAC,-3.63 ± 0.47,-4.61 ± 0.46
UAGCAGCAAUAUUACGGAAC,-4.05 ± 0.27,-3.08 ± 0.31
CGCAAGCAAUAUUACGUCGG,-0.371 ± 0.061,-0.192 ± 0.089
GUAGAGCAAUAUUACGCACC,-2.47 ± 0.28,-0.709 ± 0.2
UGACAGCAAUAUUACGAGAC,-3.79 ± 0.49,-2.72 ± 0.46
UGCCAGCAAUAUUACGCGAG,-3.22 ± 0.17,-2.92 ± 0.21
AACAAGCAAUAUUACGUUCC,-3.85 ± 0.36,-0.835 ± 0.2
UUAUAGCAAUAUUACGCGUC,,-1.11 ± 0.41
UACGAGCAAUAUUACGCCAC,,-2.29 ± 0.42
AGCCAGCAAUAUUACGCUUC,-3.53 ± 0.22,-3.48 ± 0.29
UAACAGCAAUAUUACGGGGG,-3.25 ± 0.27,-1.9 ± 0.17
CAAUAGCAAUAUUACGUUCU,-4.4 ± 0.43,
GUCGAGCAAUAUUACGGAUG,-1.27 ± 0.095,-0.69 ± 0.13
CCAUAGCAAUAUUACGGGAU,-3.65 ± 0.23,-2.86 ± 0.24
ACUGAGCAAUAUUACGGAUU,-3.91 ± 0.27,-1.59 ± 0.16
GAUUAGCAAUAUUACGCUAA,-3.24 ± 0.39,-1.89 ± 0.35
GUUAAGCAAUAUUACGCGCA,-0.293 ± 0.12,0.115 ± 0.15
CUAUAGCAAUAUUACGGUCG,0.227 ± 0.073,0.586 ± 0.11
UUAUAGCAAUAUUACGGAUC,-3.02 ± 0.45,

Sequence,self-splicing fitness (ln) (30 °C),self-splicing fitness (ln) (37 °C)
CCUGAGCAAUAUUACGUUGA,-3.7 ± 0.26,-3.27 ± 0.25
AAGAAGCAAUAUUACGAAUU,-1.53 ± 0.084,-0.992 ± 0.12
AUGCAGCAAUAUUACGGUAU,-4.16 ± 0.27,-1.42 ± 0.14
GAAUAGCAAUAUUACGUGUU,-2.18 ± 0.12,-0.873 ± 0.1
UUGCAGCAAUAUUACGGUAC,-3.25 ± 0.33,-0.374 ± 0.18
CCACAGCAAUAUUACGUAUC,-2.59 ± 0.16,-2 ± 0.22
AAAUAGCAAUAUUACGUGCG,-0.841 ± 0.13,-0.149 ± 0.15
UAUCAGCAAUAUUACGACGA,-0.537 ± 0.1,-0.425 ± 0.11
AAUGAGCAAUAUUACGGCGG,-4.11 ± 0.34,-2.69 ± 0.29
GGCGAGCAAUAUUACGUCAA,-3.73 ± 0.34,-1.71 ± 0.15
CUGCAGCAAUAUUACGGUAU,-4.53 ± 0.25,-2.85 ± 0.19
GCGGAGCAAUAUUACGCAUC,-4.01 ± 0.27,-1.81 ± 0.35
AUUGAGCAAUAUUACGAUCA,-1.91 ± 0.16,-2.07 ± 0.17
AGCUAGCAAUAUUACGCCCC,-0.339 ± 0.24,-0.157 ± 0.34
CGUGAGCAAUAUUACGUAUG,-1.37 ± 0.11,-0.0658 ± 0.12
UACUAGCAAUAUUACGAAAG,-2.94 ± 0.11,-1.93 ± 0.13
AAAAAGCAAUAUUACGCCGG,-1.62 ± 0.11,0.057 ± 0.12
CUAAAGCAAUAUUACGAAUA,-2.73 ± 0.23,-1.94 ± 0.24
ACUUAGCAAUAUUACGCCCA,-1.29 ± 0.21,-0.528 ± 0.22
AACGAGCAAUAUUACGGAAG,-2.67 ± 0.16,-2.45 ± 0.28
AGAGAGCAAUAUUACGCCUU,-3.56 ± 0.29,-2.16 ± 0.21
GUGAAGCAAUAUUACGUCCU,-0.476 ± 0.12,0.382 ± 0.18
GUUCAGCAAUAUUACGGUUG,-1.9 ± 0.089,-0.591 ± 0.1
CUUUAGCAAUAUUACGGUAU,-4.49 ± 0.34,-2.4 ± 0.24
UAUAAGCAAUAUUACGGAUG,-0.677 ± 0.055,-0.286 ± 0.083
GAUGAGCAAUAUUACGGUAC,-5.2 ± 0.36,-2.2 ± 0.33

Sequence,self-splicing fitness (ln) (30 °C),self-splicing fitness (ln) (37 °C)
GUAUAGCAAUAUUACGCUGC,-2.6 ± 0.48,-0.913 ± 0.3
GUCAAGCAAUAUUACGAUCC,-1.48 ± 0.18,-0.693 ± 0.21
UCUUAGCAAUAUUACGUGGG,-3.96 ± 0.23,-2.21 ± 0.18
CAGGAGCAAUAUUACGUACA,-2.55 ± 0.49,-1.73 ± 0.42
AUAAAGCAAUAUUACGGUUA,0.442 ± 0.078,0.534 ± 0.09
GUGUAGCAAUAUUACGGCAG,,-0.824 ± 0.23
CGUGAGCAAUAUUACGGCAA,-2.81 ± 0.2,-1.43 ± 0.19
CUGGAGCAAUAUUACGGUGG,-3.55 ± 0.14,-1.93 ± 0.12
CGAUAGCAAUAUUACGAACA,-2.13 ± 0.47,-1.38 ± 0.27
CUCGAGCAAUAUUACGCCAA,-3.29 ± 0.41,-2.04 ± 0.46
UUAGAGCAAUAUUACGUUGU,-4.16 ± 0.31,-2.4 ± 0.19
UGCAAGCAAUAUUACGGAGG,-3.21 ± 0.19,-1.42 ± 0.16
ACUCAGCAAUAUUACGCGAG,-2.93 ± 0.2,-1.21 ± 0.17
UUAUAGCAAUAUUACGGUCC,-2.8 ± 0.21,-2.93 ± 0.29
ACAAAGCAAUAUUACGGCCC,-0.546 ± 0.13,-0.479 ± 0.2
CGAUAGCAAUAUUACGCAUU,-1.87 ± 0.2,-1.3 ± 0.21
GACUAGCAAUAUUACGGCUG,-1.04 ± 0.079,-0.193 ± 0.087
CGGCAGCAAUAUUACGGCGC,-2.64 ± 0.27,-2.53 ± 0.24
AUACAGCAAUAUUACGCUCU,0.359 ± 0.13,0.358 ± 0.16
UAAGAGCAAUAUUACGCCCA,-2.62 ± 0.26,-2.09 ± 0.41
GAAGAGCAAUAUUACGGUGU,-3.49 ± 0.14,-3.02 ± 0.23
ACCUAGCAAUAUUACGGACA,-0.384 ± 0.075,-0.189 ± 0.08
UAGUAGCAAUAUUACGCAUA,-1.58 ± 0.11,-1.69 ± 0.11
CGGUAGCAAUAUUACGGUCA,-0.916 ± 0.092,-0.275 ± 0.084
